Reference: patent US20170027896A1, “METHODS AND COMPOSITIONS FOR THE TREATMENT OF VASCULAR MALFORMATION” (IFOM - FONDAZIONE ISTITUTO FIRC DI ONCOLOGIA MOLECOLARE, priority 2014, published 2017)
Entries after “also recorded” stand apart in the source; their conditions may differ.

What was measured:
[1] = system: wild-type endothelial cells; assay: Wnt3a stimulation of stem-cell/EndMT marker expression in wild-type endothelial cells; type: cell-based, mouse; settings: acute stimulation (48 h); 5 ng/ml
Protocol: (§1) Drugs were added to confluent cells for 48 h before the indicated assays. Final concentrations for IWP2 and IWP12, both from Sigma-Aldrich, were: 0.5, 2, 5 DM. Drugs were dissolved in DMSO, control treatment (Vehicle) was 0.1% DMSO final concentration, as for drug treatment. Murine recombinant Dkk1 (R&D) was 0.5 DM on cells.
(§2) RNA extraction was performed with RNeasy kits (74106; […]). The RNA (1 μg) was reverse transcribed with random hexamers (High Capacity cDNA Archive kits; Applied Biosystems). The cDNA was amplified with TaqMan gene expression assays (Applied Biosystems) using a 7900 HT thermocycler (ABI/Prism). For each sample, the expression levels were determined with the comparative threshold cycle (Ct) method, and normalized to the housekeeping genes encoding 18S and glyceraldehyde-3-phosphate dehydrogenase (GAPDH). For amplification, the following probes (Applied Biosystems) that have been validated to recognize the mouse transcripts in rtPCR were used: Axin2, Nkd1, Lef1, ccnd1, cMyc-Klf4, Ly6a, S100a4, Id1, Cdh2, Acta2, CD44. The probes to identify the CCM3 mRNA transcript were custom designed, as: forward, […] (SEQ ID No. 12); reverse, GCTCTGGCCGCTCAATCA (SEQ ID No. 13); reporter sequence, […] (SEQ ID No. 14).

VE-cadherin = target: T1, VE-cadherin (mouse, UniProt P55284 46-784); assay: co-immunoprecipitation with VE-cadherin antibodies and Western blot, bands quantified with ImageJ, mean of three experiments; vehicle-KO versus vehicle-WT
T1 construct: Endogenous protein immunoprecipitated from endothelial cell extracts with VE-cadherin antibodies (IP: VE); also called Cdh5
T1 sequence (looked up): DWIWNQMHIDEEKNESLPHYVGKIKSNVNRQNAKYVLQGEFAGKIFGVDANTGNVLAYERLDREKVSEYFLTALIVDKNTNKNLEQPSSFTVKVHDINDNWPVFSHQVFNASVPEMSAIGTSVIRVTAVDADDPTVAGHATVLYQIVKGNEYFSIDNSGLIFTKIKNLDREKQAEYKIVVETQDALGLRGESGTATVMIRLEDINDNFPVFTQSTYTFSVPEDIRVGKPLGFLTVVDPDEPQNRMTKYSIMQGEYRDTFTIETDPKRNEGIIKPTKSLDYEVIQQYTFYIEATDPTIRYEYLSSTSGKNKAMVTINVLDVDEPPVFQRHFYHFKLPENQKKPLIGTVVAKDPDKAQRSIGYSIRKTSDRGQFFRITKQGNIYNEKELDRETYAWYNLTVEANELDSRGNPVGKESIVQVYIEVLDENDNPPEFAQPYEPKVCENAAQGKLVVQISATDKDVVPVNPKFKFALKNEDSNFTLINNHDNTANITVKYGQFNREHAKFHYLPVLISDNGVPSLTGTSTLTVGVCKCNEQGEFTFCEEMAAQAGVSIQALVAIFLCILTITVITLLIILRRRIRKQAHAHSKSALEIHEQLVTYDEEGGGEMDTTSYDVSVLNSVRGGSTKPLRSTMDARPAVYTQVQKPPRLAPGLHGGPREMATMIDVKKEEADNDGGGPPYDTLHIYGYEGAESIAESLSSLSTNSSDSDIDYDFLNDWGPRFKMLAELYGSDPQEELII
Source text: Active b-catenin and VE-cadherin were lost from cell-cell contacts (adherens junctions) in these CCM3-knockout endothelial cells (top main panels, XY axis; small lower panels, Z projection along X axis). The active b-catenin (KO vehicle, arrowheads) is concentrated into the nucleus (see corresponding arrowheads in DAPI stainings) (right panels). Treatment with sulindac sulfide restored the distribution of active b-catenin to the adherens junctions (right panels, sulindac sulfide, arrowheads, and small lower right panels, sulindac sulfide, small arrowheads, for distribution along Z axis) and co-localization of active b-catenin and VE-cadherin is observed (arrowheads). […] Podocalyxin is re-localized from the apical surface (left panels, WT, arrows) to be ectopically distributed on the basal side with CCM3 knockout (right panel, vehicle, arrowheads), as it has been reported for CCM1 knockout⁴⁶. Nuclei are outlined by white lines (DAPI). Sulindac sulfide re-establishes the correct apical distribution of podocalyxin (right panel, sulindac sulfide, arrows). Scale bar, […]. c. Representative Western blotting (top) and quantification (bottom) of the effects of sulindac sulfide on the co-immunoprecipitation complex of b-catenin and VE-cadherin. […] The quantification of the bands from the Western blotting was assessed as the means of three independent experiments, using ImageJ. d.

[2] = system: CCM3-knockout (KO) endothelial cells; assay: Axin2 and S100a4 transcription in un-stimulated CCM3-knockout endothelial cells treated with Wnt pathway inhibitors; type: cell-based, mouse; settings: 48 h, IWP2, IWP12 0.5, 2, 5 DM, Dkk1 0.5 uM
Protocol: as §1, §2

[3] = system: Wnt3a-induced stimulation of Axin2; assay: Wnt3a-induced stimulation of Axin2 in wild-type and CCM3-knockout endothelial cell lines; type: cell-based, mouse; settings: Dkk1 0.5 uM
Protocol: as §1, §2

In the case of Wnt3a, the “induction of expression of stem-cell/EndMT markers” value [1] is reported as “cannot induce; also recorded: did not induce”.

B1: b-catenin (other, mouse, UniProt Q02248 2-781, looked up)
chain: ATQADLMELDMAMEPDRKAAVSHWQQQSYLDSGIHSGATTTAPSLSGKGNPEEEDVDTSQVLYEWEQGFSQSFTQEQVADIDGQYAMTRAQRVRAAMFPETLDEGMQIPSTQFDAAHPTNVQRLAEPSQMLKHAVVNLINYQDDAELATRAIPELTKLLNDEDQVVVNKAAVMVHQLSKKEASRHAIMRSPQMVSAIVRTMQNTNDVETARCTAGTLHNLSHHREGLLAIFKSGGIPALVKMLGSPVDSVLFYAITTLHNLLLHQEGAKMAVRLAGGLQKMVALLNKTNVKFLAITTDCLQILAYGNQESKLIILASGGPQALVNIMRTYTYEKLLWTTSRVLKVLSVCSSNKPAIVEAGGMQALGLHLTDPSQRLVQNCLWTLRNLSDAATKQEGMEGLLGTLVQLLGSDDINVVTCAAGILSNLTCNNYKNKMMVCQVGGIEALVRTVLRAGDREDITEPAICALRHLTSRHQEAEMAQNAVRLHYGLPVVVKLLHPPSHWPLIKATVGLIRNLALCPANHAPLREQGAIPRLVQLLVRAHQDTQRRTSMGGTQQQFVEGVRMEEIVEGCTGALHILARDVHNRIVIRGLNTIPLFVQLLYSPIENIQRVAAGVLCELAQDKEAAEAIEAEGATAPLTELLHSRNEGVATYAAAVLFRMSEDKPQDYKKRLSVELTSSLFRTEPMAWNETADLGLDIGAQGEALGYRQDDPSYRSFHSGGYGQDALGMDPMMEHEMGGHHPGADYPVDGLPDLGHAQDLMDGLPPGDSNQLAWFDTDL
notes: Endogenous protein in total cell extracts, co-immunoprecipitated with VE-cadherin antibodies; also called beta-catenin; β-catenin
With B1 the “reduction of the b-catenin/VE-cadherin co-immunoprecipitation ratio in CCM3-knockout versus wild-type cells” value (VE-cadherin) was 35%.

B2: Dkk1: murine recombinant Dkk1, competitor of Wnt co-receptor Lrp5/6 (protein)
chain: TLNSVLINSNAIKNLPPPLGGAGGQPGSAVSVAPGVLYEGGNKYQTLDNYQPYPCAEDEECGSDEYCSSPSRGAAGVGGVQICLACRKRRKRCMRHAMCCPGNYCKNGICMPSDHSHFPRGEIEESIIENLGNDHNAAAGDGYPRRTTLTSKIYHTKGQEGSVCLRSSDCAAGLCCARHFWSKICKPVLKEGQVCTKHKRKGSHGLEIFQRCYCGEGLACRIQKDHHQASNSSRLHTCQRH
For B2, the “b-catenin-driven activation of Axin2 and S100a4 transcription” value [2] was “not inhibited; also recorded: did not inhibit” and the “Wnt3a-induced stimulation of Axin2” value [3] was “effectively inhibited”.
